According to PMC7118173 (Nature Communications, 2020):
Where a chain is given by its changes, count along the chain named.

Experiments:
SepF [1] = test: Western blots of whole-cell extracts (SepF depletion / expression); assay type: cell-based, C. glutamicum; conditions: Pino-sepF strain, 1% myo-inositol
Procedure: 24 homogenizer. Crude extracts (120 μg) were analyzed by SDS-PAGE, electro-transferred onto a 0.2 μm Nitrocellulose membrane and blocked with 5% (w/v) skimmed milk. Membranes were incubated with an anti-SepF antibody (produced by Covalab, Supplementary Fig. 25a), an anti-FtsZ antibody (produced by Proteogenix, Supplementary Fig. 25b) or an anti-mNeonGreen antibody (purchased from Chromotek) for 1 h at room temperature.

Pino-sepF strain [2] = test: Growth curves / complementation of the Pino-sepF strain
Procedure: Positive colonies were grown in BHI media supplemented with 25 µg/ml kanamycin overnight at 30 °C and 120 rpm shaking.
All strains were plated in CGXII media plates with 4% (w/v) sucrose as a carbon source for 2 days at 30 °C and then single colonies were inoculated in 10 ml of CGXII media 4% (w/v) sucrose overnight at 30 °C and 120 rpm shaking. The next day, 20 ml of CGXII media supplemented with the appropriate repressor or inducer were inoculated with the overnight cultures to a starting OD600 of 1. OD600 measurements were taken every 1.5 h. Each growth curve represents the average of three different growth curves originally from three different single colonies. […] When required, CGXII media 4% (w/v) sucrose was supplemented with either 1% (w/v) myo-inositol, 50 ng/ml tetracycline or 1% (w/v) gluconate and 25 μg/ml kanamycin.

[3] = system: C. glutamicum ATCC13032 whole-cell extracts; test: SepF and FtsZ quantification by Western blot; assay type: cell-based, Corynebacterium glutamicum; conditions: 60 ugr loaded
[4] = molecular target: the molecule itself; test: crystal structure; SepFΔML 10 mg/ml with FtsZCTD 5.8 mg/ml (1:5 molar ratio), 100 mM sodium acetate pH 4.6, 30% PEG 4000, 18 °C; 1.6 Å
[5] = molecular target: the molecule itself; test: turbidity + dynamic light scattering; SepF or SepF mutant with SUVs (POPC:POPG 8:2), 50 µM each, 100 mM KCl, 10 mM MgCl2, 25 mM Pipes pH 6.9, 25 °C
[6] = Negative stain EM of SUVs with SepF; assay type: biochemical; conditions: SepFΔα3 + SUVs, upon addition of FtsZCTD
Dynamic light scattering = assay type: physicochemical; conditions: protein alone
Procedure: Polydispersity of the samples was measured using Dyna-pro Plate Reader (Wyatt technology) equipped with an 830 nm laser and a temperature control module. The Dynamics software (version 7.9) was used to schedule data acquisition and data analysis. For each well, 20 measurements of 10 s were averaged and this operation was repeated 20 times for each condition at 25 °C. For samples containing FtsZCTD, the peptide was used at a final concentration of 100 µM. All the experiments were carried out as minimum three biological and technical replicates.

SepF [7] = test: SepF polymerization (turbidity) assay in the presence of SUVs; assay type: biochemical, C. glutamicum; conditions: SepF (or mutant) plus SUVs 50 µM each, pH 6.9, 25 °C
Procedure: When used, FtsZCTD was added at a final concentration of 100 μM.
Reverse phase evaporation was used to prepare small unilamellar vesicles (SUVs). A 10 mM lipid solution made of an 8:2 mixture of 1-palmitoyl-2-oleoyl phosphatidylcholine (POPC) and 1-palmitoyl-2-oleoylglycero-3-phosphoglycerol (POPG) (Avanti Polar Lipids) was prepared as described. Chloroform was removed by evaporation under vacuum conditions and the dried phospholipid film was resuspended in a mixture of diethyl ether and buffer (25 mM Hepes pH 7.4, 10 mM MgCl2 and 150 mM KCl). Diethyl ether was eliminated by reverse phase evaporation and by slowly decreasing the pressure to the vacuum. SUVs were obtained by sonication during 30 min at 4 °C. The diameter and charge of SUV were determined by measuring dynamic light scattering (DLS) and electrophoretic mobility profiles on a Zetasizer Nano instrument (Malvern Instruments).

[8] = molecular target: T1, His6-Sumo tagged SepF_(ΔML,F131A) (Corynebacterium glutamicum, UniProt Q8NNN6 63-152, F131A); test: SPR; Biacore T200, 25 °C, 25 mM HEPES pH 8, 150 mM KCl, 0.1 mM EDTA; His6-Sumo SepF variants covalently immobilised on NTA chips (3000-4000 RU); FtsZCTD 1.56 to 400 µM injected; steady-state fit; apparent Kd; conditions: both partners purified
T1 construct: SepF (cg2363), Corynebacterium glutamicum, amino acids 63 to 152 with F131A; also called SepF_(F131A); source: E. coli BL21 (DE3), purified (Ni-NTA, dialysed directly without SUMO protease for SPR); not shown: His6, N-terminal, kept; SUMO, N-terminal, kept
T1 sequence (looked up): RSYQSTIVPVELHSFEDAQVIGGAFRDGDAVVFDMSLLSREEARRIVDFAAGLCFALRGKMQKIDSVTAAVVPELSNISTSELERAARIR

His6-Sumo tagged SepFΔML = molecular target: T2, His6-Sumo tagged SepFΔML (Corynebacterium glutamicum, UniProt Q8NNN6 63-152); test: as above; conditions: both partners purified
T2 construct: SepF (cg2363), Corynebacterium glutamicum, amino acids 63 to 152; Covalently immobilised on an NTA sensor chip; also called immobilized SepF; source: E. coli BL21 (DE3), purified (Ni-NTA, dialysed directly without SUMO protease for SPR); not shown: His6, N-terminal, kept; SUMO, N-terminal, kept
T2 sequence (looked up): T1 sequence (looked up) with A69F

Pino-sepF strain [9] = test: Cell length distribution (violin plots), Pino-sepF strains; assay type: cell-based, Corynebacterium glutamicum
Procedure: For imaging, cultures of C. glutamicum were grown in BHI or minimal medium CGXII during the day, and washed and inoculated into CGXII media for overnight growth. The following day cultures were diluted to OD600 = 1 and grown to the required OD (early exponential phase) for imaging. For HADA labeling, cultures were incubated with 0.5 mM HADA for 20 min at 30 °C in the dark. Two percent agarose pads were prepared with the corresponding growth medium and cells were visualized using a Zeiss Axio Observer Z1 microscope fitted with an Orca Flash 4 V2 sCMOS camera (Hamamatsu), and a Pln-Apo 63×/1.4 oil Ph3 objective. Images were collected using Zen Blue 2.6 (Zeiss) and analyzed using the software Fiji[70] and the plugin MicrobeJ[71] to generate violin plots and fluorescent intensity heatmaps. […] The experiments were performed as biological triplicates.

WT C. glutamicum = test: Number of ring-like structures per cell, overexpression in WT; assay type: cell-based, Corynebacterium glutamicum
[10] = molecular target: the molecule itself; test: crystal structure; SepF_(ΔML,Δα3) 17 mg/ml alone, 0.1 M MES pH 6, 20% PEG MME 2000, 0.2 M NaCl, 18 °C
[11] = molecular target: the molecule itself; test: SEC + AUC; sedimentation velocity, 42,000 rpm, 20 °C, 1-2 mg/ml, 50 mM Hepes pH 7.4, 150 mM KCl, 10 mM MgCl2; size exclusion chromatography
[12] = Negative stain EM of SepF rings; assay type: physicochemical; conditions: 50 μM, 50 mM HEPES pH 7.4, 300 mM KCl, 10 mM MgCl2
Procedure: For all samples, 400 mesh carbon coated grids (Electron Microscopy Sciences; CF 400-Cu) were glow-discharged on an ELMO system for 30 sec at 2 mA. 5 µl samples were applied onto the grids and incubated for 30 s, the sample was blotted, washed in 3 drops of water and then stained with 2% (weight/vol) uranyl acetate. Images were recorded on a Gatan UltraScan4000 charged coupled device (CCD) camera (Gatan) on a Tecnai T12 BioTWINLaB6 electron microscope operating at a voltage of 120 kV.

Molecule: O[C@H]1[C@H](O)[C@@H](O)[C@H](O)[C@@H](O)[C@H]1O [myo-inositol, reference compound]
- SepF protein level (SepF [1]): rapid depletion of SepF
- growth of Pino-sepF (Pino-sepF strain [2]; 1% myo-inositol, after the first 6 h): growth stopped for the depleted strain

Molecule: FtsZ: C. glutamicum FtsZ (cg2366)
- band volume in whole-cell extract ([3]; ON S (over-night, sucrose)): 14.8379
- band volume in whole-cell extract ([3]; ON S+G (over-night, sucrose + gluconate)): 18.4228
- band volume in whole-cell extract ([3]; T6 S (6 h, sucrose)): 20.1825
- band volume in whole-cell extract ([3]; T6 S+G (6 h, sucrose + gluconate)): 23.8045

B1: C. glutamicum SepF C-terminal core domain (SepFΔML), tag removed (domain or fragment, Corynebacterium glutamicum, UniProt Q8NNN6 63-152, looked up)
chain: T1 sequence (looked up) with A69F
notes: Gene codon optimised and synthesised for E. coli; homodimer in the crystal; also called globular core of SepF; source: E. coli BL21 (DE3), purified (Ni-NTA, SUMO protease, SEC); not shown: His6, N-terminal, cleaved; SUMO, N-terminal, cleaved
- binding result [4]: binds

B2: SepFΔα3 (domain or fragment, Corynebacterium glutamicum, UniProt Q8NNN6 1-137, looked up)
chain: MSMLKKTKEFFGLAPYEAEHEDAYYADEPRYEGTAAYAPEYRERDYGYAPEAPAPVAPSPAPRSYQSTIVPVELHSFEDAQVIGGAFRDGDAVVFDMSLLSREEARRIVDFAAGLCFALRGKMQKIDSVTFAVVPEL
notes: SepF (cg2363), Corynebacterium glutamicum, amino acids 1 to 137 (without the C-terminal helix α3); source: E. coli BL21 (DE3), purified (Ni-NTA, SUMO protease, SEC); not shown: His6, N-terminal, cleaved; SUMO, N-terminal, cleaved
- binding result [5]: binds

B3: SepFΔα3: SepF amino acids 1 to 137, lacking the regulatory C-terminal helix (protein)
chain: B2 chain
modifications: left off: His6, N-terminal, cleaved | SUMO, N-terminal, cleaved
- reversal by FtsZCTD of particle formation and vesicle tubulation [6]: only partially reversed
- dispersity by DLS (Dynamic light scattering): monodisperse
- polymerization with SUVs (turbidity) (SepF [7]): polymerization and vesicle tubulation were also seen but could only be partially reversed

B4: FtsZCTD peptide (conserved C-terminal domain of C. glutamicum FtsZ, 10 residues) (peptide)
peptide: DDLDVPSFLQ
notes: C-terminal 10 residues of FtsZ (cg2366), Corynebacterium glutamicum; the printed residues D436, P438 and F440 place the peptide at 433-442; also called FtsZ C-terminal domain peptide; source: synthetic peptide, bought: Genosphere
- Kd [8]: 340 µM
- Kd (His6-Sumo tagged SepFΔML): 15 µM

B5: full-length C. glutamicum SepF (recombinant) (natural protein, Corynebacterium glutamicum, UniProt Q8NNN6 1-152, looked up)
chain: MSMLKKTKEFFGLAPYEAEHEDAYYADEPRYEGTAAYAPEYRERDYGYAPEAPAPVAPSPAPRSYQSTIVPVELHSFEDAQVIGGAFRDGDAVVFDMSLLSREEARRIVDFAAGLCFALRGKMQKIDSVTFAVVPELSNISTSELERAARIR
notes: SepF (cg2363), Corynebacterium glutamicum, full length; source: E. coli BL21 (DE3), purified (Ni-NTA, SUMO protease, SEC); not shown: His6, N-terminal, cleaved; SUMO, N-terminal, cleaved
- binding result [5]: binds

B6: SepF-Scarlet: mScarlet-I fused on the C-terminal side of SepF (protein)
chain: B5 chain
modifications: left off: mScarlet-I, C-terminal, kept
- mean cell length (Pino-sepF strain [9]; 1% myo-inositol + 1% gluconate, t = 6, replicate 1, listed as PgntK_SepF_Scarlet): 5.38
- cell elongation on complementation (Pino-sepF strain [9]; PgntK, compared with control cells): cells were more elongated than control cells
- complementation of SepF depletion (growth) (Pino-sepF strain [2]; SepF depletion with 1% myo-inositol, exogenous construct induced): complemented the SepF depletion strain for growth
- frequency of cells with n septa (ring-like structures) (WT C. glutamicum; n septa 0, replicate 1): 0.369
- frequency of cells with n septa (ring-like structures) (WT C. glutamicum; n septa 0, replicate 2): 0.283
- frequency of cells with n septa (ring-like structures) (WT C. glutamicum; n septa 0, replicate 3): 0.282
- frequency of cells with n septa (ring-like structures) (WT C. glutamicum; n septa 1, replicate 1): 0.513
- frequency of cells with n septa (ring-like structures) (WT C. glutamicum; n septa 1, replicate 2): 0.547
- frequency of cells with n septa (ring-like structures) (WT C. glutamicum; n septa 1, replicate 3): 0.565
- frequency of cells with n septa (ring-like structures) (WT C. glutamicum; n septa 2, replicate 1): 0.104
- frequency of cells with n septa (ring-like structures) (WT C. glutamicum; n septa 2, replicate 2): 0.153
- frequency of cells with n septa (ring-like structures) (WT C. glutamicum; n septa 2, replicate 3): 0.127
- frequency of cells with n septa (ring-like structures) (WT C. glutamicum; n septa 3, replicate 1): 0.014
- frequency of cells with n septa (ring-like structures) (WT C. glutamicum; n septa 3, replicate 2): 0.017
- frequency of cells with n septa (ring-like structures) (WT C. glutamicum; n septa 3, replicate 3): 0.025
- frequency of cells with n septa (ring-like structures) (WT C. glutamicum; n septa 4, replicate 1): 0
- frequency of cells with n septa (ring-like structures) (WT C. glutamicum; n septa 4, replicate 2): 0
- frequency of cells with n septa (ring-like structures) (WT C. glutamicum; n septa 4, replicate 3): 0
- frequency of cells with n septa (ring-like structures) (WT C. glutamicum; n septa 5, replicate 1): 0
- frequency of cells with n septa (ring-like structures) (WT C. glutamicum; n septa 5, replicate 2): 0
- frequency of cells with n septa (ring-like structures) (WT C. glutamicum; n septa 5, replicate 3): 0
- frequency of cells with n septa (ring-like structures) (WT C. glutamicum; n septa 6, replicate 1): 0
- frequency of cells with n septa (ring-like structures) (WT C. glutamicum; n septa 6, replicate 2): 0
- frequency of cells with n septa (ring-like structures) (WT C. glutamicum; n septa 6, replicate 3): 0
- frequency of cells with n septa (ring-like structures) (WT C. glutamicum; n septa 7, replicate 1): 0
- frequency of cells with n septa (ring-like structures) (WT C. glutamicum; n septa 7, replicate 2): 0
- frequency of cells with n septa (ring-like structures) (WT C. glutamicum; n septa 7, replicate 3): 0
- ring-like structures per cell (WT C. glutamicum; overexpression in WT background): mostly single rings at mid-cell

B7: SepF_(ΔML,Δα3) (domain or fragment, Corynebacterium glutamicum, UniProt Q8NNN6 63-137, looked up)
chain: RSYQSTIVPVELHSFEDAQVIGGAFRDGDAVVFDMSLLSREEARRIVDFAAGLCFALRGKMQKIDSVTFAVVPEL
notes: SepF (cg2363), Corynebacterium glutamicum, amino acids 63 to 137 (core domain without the C-terminal helix α3); Dimers associate into linear polymers in the crystals; source: E. coli BL21 (DE3), purified (Ni-NTA, SUMO protease, SEC); not shown: His6, N-terminal, cleaved; SUMO, N-terminal, cleaved
- binding result [10]: binds

B8: C. glutamicum SepF devoid of helix α3 (construct of the SEC and AUC experiments) (domain or fragment)
chain: B7 chain with R1M
- stoichiometry N [11]: 2

B9: M. tuberculosis SepFΔML (domain or fragment)
chain: EDGHPLSKITTLRPKDYSEARTIGERFRDGSPVIMDLVSMDNADAKRLVDFAAGLAFALRGSFDKVATKVFLLSPADVDVSPEERRRIAETGFYAYQ
notes: also called MtbSepFΔML
- ring diameter [12]: ~ 40 nm
